Legend:
[1] = target: T1, SARS-CoV-2 spike RBD-His (wildtype, WA1/2020) (SARS-CoV-2, UniProt P0DTC2 319-541); assay: BLI
[2] = target: T1, SARS-CoV-2 spike RBD-His (wildtype, …); assay: BLI; remark: listed apart in the source

B1: P4A2 monoclonal antibody (antibody, V domains shown)
VH: QVQLQQSGAELVKPGASVKLSCKASGFTFTRYSIYWMKQRPGQGLEWIGEINPSTGDTNFNEKFKSKATLTVDKSSTTAYMQLSSLTSEDSAVYYCTRSTGYWGQGTLVTVSA
VL: DIVLTQSPASLAVSLGQRATISCRASESVEYHGTILMQWFQQKPGQPPRLLIYAASNVDSGVPARFSGSGSGTDLSLNIHPVEEDDIAMYFCQQSRKVPYTFGGGTKLEIK
[1]
  Kd: < 1 pM
[2]
  koff: < 1e-07 s⁻¹

— article PMC9779650 (2022)
